For this assay, the target named is Mos1 transposase (T216A mutant) (Drosophila mauritiana). Briefly: crystal structure; Mos1 IRL paired-end complex: full-length transposase mixed with duplex IRL DNA at 1:1.5 protein:DNA in 25 mM Tris pH 7.5, 250 mM KCl, 1 mM DTT; crystals grown at 17 °C; 3.1 Å.

Usually stoichiometry N stands for the number of molecules, sites or subunits per partner or assembly. In the case of “Mos1 transposase (T216A mutant) (enzyme)”, the stoichiometry N stood at 2.
